Reference: PMC6540616

Experiments:
Assay in all cases: DHFR protein complementation assay (yeast growth)
Conditions in all cases: MTX-containing media relative to MTX-free media; read off a plot
[1] = target: caskin1 SAM fused to DHFR F3 (UniProt Q6P9K8)
[2] = target: PTPσ full-length (FL) fused to DHFR F1-2, wild type
[3] = target: trio IgPSK fused to DHFR F3

Sequence of UniProt Q6P9K8 (Q6P9K8 344-636): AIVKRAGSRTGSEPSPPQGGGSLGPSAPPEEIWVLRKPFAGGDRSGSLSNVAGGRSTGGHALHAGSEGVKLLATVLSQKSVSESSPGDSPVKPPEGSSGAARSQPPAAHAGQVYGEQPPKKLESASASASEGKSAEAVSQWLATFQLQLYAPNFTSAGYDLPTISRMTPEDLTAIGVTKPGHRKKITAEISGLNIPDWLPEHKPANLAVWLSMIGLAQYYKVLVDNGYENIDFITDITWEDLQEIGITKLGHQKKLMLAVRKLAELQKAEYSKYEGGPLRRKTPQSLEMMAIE

Substance: PTPσ full-length (FL) fused to DHFR F1-2, wild type EGFID
- other: interaction score [1]: -0.11

Substance: PTPσ full-length (FL) fused to DHFR F1-2, wild type QFG
- other: interaction score [2]: 0.8

Substance: PTPσ intracellular region (ICR) fused to DHFR F1-2, wild type EGFID
- other: interaction score [3]: 0.93
